# In US20250026861A1 (INVENRA, published 2025):
# T1: CD3
# T1 chain: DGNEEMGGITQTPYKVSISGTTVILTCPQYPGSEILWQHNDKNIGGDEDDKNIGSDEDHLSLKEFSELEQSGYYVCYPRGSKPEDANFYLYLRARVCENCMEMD
# Legend:
# [1] = target: T2, CTLA4 (UniProt P16410 36-161, limits assumed); assay: Octet biolayer interferometry; antigen immobilized, B-Body as analyte
# T2 construct: Immobilized antigen in the Octet assays
# Description: In each instance, the antigen is immobilized and the B-Body is the analyte.
# [2] = target: T1, CD3; assay: BLI (Octet), two-fold serial dilution (200-12.5 nM) of the construct
# T2 sequence (P16410 36-161 limits assumed): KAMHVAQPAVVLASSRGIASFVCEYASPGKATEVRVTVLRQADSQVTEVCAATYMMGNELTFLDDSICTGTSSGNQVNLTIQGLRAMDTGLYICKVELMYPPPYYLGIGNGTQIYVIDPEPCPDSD
Binder,binding result [1],Kd [2] [nM],koff [2] [s⁻¹],kon [2] [M⁻¹ s⁻¹]
bivalent bispecific B-Body “BC1” (bispecific antibody) chain 1: not shown chain 2: EVQLVESGGGLVQPGGSLRLSCAASGFTFSDYDIHWVRQAPGKGLEWVGDITPYDGTTNYADSVKGRFTISADTSKNTAYLQMNSLRAEDTAVYYCARLVGEIATGFDYWGQGTLVTVSSASPREPQVYTDPPSRDELTKNQVSLTCLVKGFYPSDIAVEWESNGQPENNYKTTPPVLDSDGSFFLYSKLTVDKSRWQQGNVFSCSVMHEALHNHYTQKSLSLSGEC chain 3: not shown chain 4: QVQLVESGGGVVQPGRSLRLDCKASGITFSNSGMHWVRQAPGKGLEWVAVIWYDGSKRYYADSVKGRFTISRDNSKNTLFLQMNSLRAEDTAVYYCATNDDYWGQGTLVTVSSASTKGPSVFPLAPSSKSTSGGTAALGCLVKDYFPEPVTVSWNSGALTSGVHTFPAVLQSSGLYSLSSVVTVPSSSLGTQTYICNVNHKPSNTKVDKKVEPPKSC,no binding,,,
"non-mutagenized SP34-89 monovalent B-Body (bispecific antibody, V domains shown, VL and VH cloned into one arm of a 1×1 BC1 B-Body; also called SP34-89 VL-WT/SP34-89 VH-WT) VH: EVQLVESGGGLVQPGGSLRLSCAASGFTFNTYAMNWVRQAPGKGLEWVARIRSKYNNYATYYADSVKGRFSISRDDSKNTAYLQMNSLRAEDTAVYYCVRHGNFGNSYVSWFAYWGQGTLVTV VL: QAVVTQEPSLTVSPGGTVTLTCRSSTGAVTTSNYANWVQQKPGQAPRGLIGGTNKRAPWTPARFSGSLLGGKAALTITGAQAEDEADYYCALWYSNLWVFGGGTKLTVL",,23,0.0071,300000
